Measurements: patent publication US20200283521A1 (GRANULAR THERAPEUTICS, published 2020)
Changes are numbered by the printed parent chain. Where two headings read alike, the source gives them in different places.

T1: CRIM1 (human, UniProt Q9NZV1 35-1036)
T1 construct: whole, on cells
T1 sequence (looked up): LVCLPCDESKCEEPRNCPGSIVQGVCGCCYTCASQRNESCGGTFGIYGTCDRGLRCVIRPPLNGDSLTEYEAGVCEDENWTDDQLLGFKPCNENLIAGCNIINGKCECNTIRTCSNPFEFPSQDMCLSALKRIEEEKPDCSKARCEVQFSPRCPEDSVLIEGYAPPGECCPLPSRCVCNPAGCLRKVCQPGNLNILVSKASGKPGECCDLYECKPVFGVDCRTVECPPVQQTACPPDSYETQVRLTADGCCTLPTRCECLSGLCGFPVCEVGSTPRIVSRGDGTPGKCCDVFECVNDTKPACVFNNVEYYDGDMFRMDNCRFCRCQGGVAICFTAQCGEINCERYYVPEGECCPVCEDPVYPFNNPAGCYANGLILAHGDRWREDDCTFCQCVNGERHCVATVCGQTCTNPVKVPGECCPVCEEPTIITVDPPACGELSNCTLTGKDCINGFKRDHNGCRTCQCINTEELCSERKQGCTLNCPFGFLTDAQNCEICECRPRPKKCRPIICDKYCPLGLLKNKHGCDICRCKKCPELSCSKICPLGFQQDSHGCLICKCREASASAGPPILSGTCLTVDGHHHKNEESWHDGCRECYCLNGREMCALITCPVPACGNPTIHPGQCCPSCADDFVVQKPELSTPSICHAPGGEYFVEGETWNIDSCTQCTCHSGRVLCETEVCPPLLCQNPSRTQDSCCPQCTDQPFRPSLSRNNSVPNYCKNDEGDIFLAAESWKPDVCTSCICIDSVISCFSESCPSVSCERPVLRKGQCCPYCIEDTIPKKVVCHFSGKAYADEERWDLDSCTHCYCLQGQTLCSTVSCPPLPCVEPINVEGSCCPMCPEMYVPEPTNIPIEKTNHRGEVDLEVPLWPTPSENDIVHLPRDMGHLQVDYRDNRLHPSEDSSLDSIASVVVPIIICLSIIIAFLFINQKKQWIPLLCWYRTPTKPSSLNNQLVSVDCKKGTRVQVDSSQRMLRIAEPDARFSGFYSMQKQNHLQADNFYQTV

T2: MMP7 (human, UniProt P09237 95-267)
T2 construct: whole, on cells
T2 sequence (looked up): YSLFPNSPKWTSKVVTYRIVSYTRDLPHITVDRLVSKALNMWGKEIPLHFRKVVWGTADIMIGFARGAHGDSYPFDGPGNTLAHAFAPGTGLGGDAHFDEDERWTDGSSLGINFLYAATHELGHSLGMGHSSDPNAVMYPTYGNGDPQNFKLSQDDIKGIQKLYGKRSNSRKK

T3: F13A1 (human, UniProt P00488 39-732)
T3 construct: whole, on cells
T3 sequence (looked up): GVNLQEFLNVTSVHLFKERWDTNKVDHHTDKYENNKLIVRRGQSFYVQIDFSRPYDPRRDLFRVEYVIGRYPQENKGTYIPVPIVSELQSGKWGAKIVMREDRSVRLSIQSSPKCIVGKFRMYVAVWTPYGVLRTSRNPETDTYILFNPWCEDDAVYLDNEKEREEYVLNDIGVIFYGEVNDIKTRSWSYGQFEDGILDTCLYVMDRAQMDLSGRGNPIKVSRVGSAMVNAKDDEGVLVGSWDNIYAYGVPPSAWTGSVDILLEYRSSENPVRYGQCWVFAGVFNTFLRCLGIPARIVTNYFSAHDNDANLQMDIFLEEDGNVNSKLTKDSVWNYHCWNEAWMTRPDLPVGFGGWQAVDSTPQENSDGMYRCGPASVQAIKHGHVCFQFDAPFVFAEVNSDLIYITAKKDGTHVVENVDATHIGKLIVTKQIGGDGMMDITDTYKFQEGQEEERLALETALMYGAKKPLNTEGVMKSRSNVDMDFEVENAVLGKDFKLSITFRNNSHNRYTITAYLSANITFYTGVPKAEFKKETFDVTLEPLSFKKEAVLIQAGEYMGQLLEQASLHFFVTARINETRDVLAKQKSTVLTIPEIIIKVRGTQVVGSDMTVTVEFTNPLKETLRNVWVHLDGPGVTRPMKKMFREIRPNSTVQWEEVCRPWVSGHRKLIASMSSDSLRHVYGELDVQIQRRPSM

B1: MH5, human IgG1 (antibody, V domains shown)
VH: QVQLVQSGAEVKKPGASVKVSCKASGYTFTDYYMNWVRQAPGQGLEWMGRIYPGSGNTYYAQKFQGRVTMTRDTSTSTVYMELSSLRSEDTAVYYCARGVYYYDYWGQGTLVTVSS
VL: DIQMTQSPSSLSASVGDRVTITCRASQGIRTNLAWFQQKPGKAPKSLIYSASSLQSGVPSRFSGSGSGTDFTLTISSLQPEDFATYYCQQYANYPRTFGGGTKVEIK
notes: IgG1; also called C-KIT-MH5; C-KIT-MHS
B2: MH1, human IgG1 (antibody, V domains shown)
VH: B1 VH
VL: B1 VL with S50A, A92N, N93S
notes: IgG1; also called IgG1-MH1
B3: MH5.22 (antibody, IgG1, V domains shown)
VH: B1 VH with Y32F, G54A, Y101W
VL: B1 VL with S50A
notes: IgG1; also called C-KIT-MH5.22
B4: humanized h37M, human IgG1 (antibody, V domains shown)
VH: QVQLVQSGAEVKKPGASVKLSCKASGYTFTDYYINWVRQAPGKGLEWIARIYPGSGNTYYNEKFKGRATLTADKSTSTAYMQLSSLRSEDTAVYFCARGVYYFDYWGQGTTVTVSS
VL: DIVMTQSPSSLSASVGDRVTITCKASQNVRTNVAWYQQKPGKAPKALIYSASYRYSGVPDRFTGSGSGTDFTLTISSLQPEDFADYFCQQYNSYPRTFGGGTKVEIK
notes: human IgG1; terbium-labelled as the tracer of the HTRF assays; also called C-KIT-h37M; h37M-IgG1

Assays:
[1] = biological target: T4, cynomolgus monkey C-KIT-Fc (cynomolgus monkey); assay: HTRF competition vs Tb-h37M IgG1
T4 construct: also called cyno C-KIT-Fc

[2] = biological target: T5, human C-KIT-Fc (human, UniProt P10721 26-524); assay: HTRF competition vs Tb-h37M IgG1
T5 construct: also called biotinylated human C-KIT-Fc; not shown: Fc part not described

[3] = biological target: T6, cynomolgus monkey C-KIT, full length, on CHO-K1 cells (cynomolgus monkey); assay: flow cytometry, C-KIT-transfected CHO-K1 cells, IgG1 format
T6 construct: whole, on cells; also called cyno C-KIT+ CHO-K1 cells

[4] = biological target: T7, human C-KIT, full length, on cells (human, UniProt P10721 26-976); assay: as above
T7 construct: full-length cDNA stably transfected in CHO-K1; also used here for endogenous C-KIT of TF-1 cells; also called human C-KIT+ CHO-K1 cells; C-KIT on TF-1 cells

[5] = biological target: T5, human C-KIT-Fc; assay: direct titration ELISA on coated C-KIT-Fc, IgG1 format
[6] = biological target: T5, human C-KIT-Fc; assay: as above; remark: listed apart in the source
[7] = biological target: T4, cynomolgus monkey C-KIT-Fc; assay: direct ELISA at 1 µg/ml
[8] = biological target: T5, human C-KIT-Fc; assay: direct ELISA at 1 µg/ml
[9] = biological target: T4, cynomolgus monkey C-KIT-Fc; assay: HTRF competition vs Tb-h37M IgG1; remark: listed apart in the source
[10] = biological target: T5, human C-KIT-Fc; assay: HTRF competition vs Tb-h37M IgG1; remark: listed apart in the source
[11] = biological target: T1, CRIM1; assay: cell array, HEK293 re-array slides
[12] = biological target: T2, MMP7; assay: cell array, HEK293 re-array slides
[13] = biological target: T3, F13A1; assay: cell array, HEK293 re-array slides

Binder | IC50 [1] | IC50 [2] | EC50 (read off the curve) [3] | EC50 (read off the curve) [4] | EC50 (read off the curve) [5] | EC50 (read off the curve) [6] | OD450 nm [7] | OD450 nm [8] | IC50 [9] | IC50 [10] | binding result [11] | binding result [12] | binding result [13]
B1 | 0.036 µg/mL | 0.063 µg/mL | ~0.5 µg/mL | ~0.3 µg/mL | ~0.1 µg/mL | ~0.1 µg/mL | > 2 OD450 nm | > 1.8 OD450 nm | 0.058 µg/mL | 0.067 µg/mL | – | – | –
B2 | – | – | – | – | ~0.1 µg/mL | – | > 2 OD450 nm | > 1.8 OD450 nm | – | – | no binding (tested: 0.5 and 2 µg/ml) | no binding (tested: 0.5 and 2 µg/ml) | no binding (tested: 0.5 and 2 µg/ml)
B3 | – | – | ~0.4 µg/mL | ~0.4 µg/mL | – | – | > 2 OD450 nm | > 1.8 OD450 nm | 0.164 µg/mL | 0.134 µg/mL | – | – | –
B4 | – | 0.025 µg/mL | – | ~0.2 µg/mL | ~0.2 µg/mL | ~0.1 µg/mL | – | > 1.8 OD450 nm | – | 0.016 µg/mL | no binding (tested: 0.5 and 2 µg/ml) | no binding (tested: 0.5 and 2 µg/ml) | no binding (tested: 0.5 and 2 µg/ml)
